Measured values: the supplement of paper PMC7877785
± gives the uncertainty stated by the source.

Experiment: self-splicing fitness, log relative to wild type (ln ratio); higher = more splicing; Tetrahymena group I intron in knt gene, E. coli kanamycin selection, DiMSum; sequences stand for … in CUCUCU…GGAGGGAAAAGUUAUCAGGCAUGCACCUGGUAGCUAGUCUUUAAACCAAUAGAUUGCAUCGGUUUAAAAGGCAAGACCGUCAAAUUGCGGGAAAGGGGUCAACAGCCGUUCAGUACCAAGUCUCAGGGGAAACUUUGAGAUGGCCUUGCAAAGGGUAUGGUAAUAAGCUGACGGACAUGGUCCUAACCACGCAGCCAAGUCCUAAGUCAACAGAUCUUCUGUUGAUAUGGAUGCAGUUCACAGACUAAAUGUCGGUCGGGGAAGAUGUAUUCUUCUCAUAAGAUAUAGUCGGACCUCUCCUUAAUGGGAGCUAGCGGAUGAAGUGAUGCAACACUGGAGCCGCUGGGAACUAAUUUGUAUGCGAAAGUAUAUUGAUUAGUUUUGGAGUACUCGUGGUCG
In short: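 The eight P1ex-region nucleotides of an intron in the knt kanamycin-resistance gene on pET-22b(+) were all randomised and the library put into E. coli BL21(DE3). Six replicate transformations were grown overnight at 37°C or 30°C on LB agar with or without 25 μg/mL kanamycin, together with 100 μg/mL carbenicillin, 50 μM IPTG and 0.2% rhamnose. Colonies were pooled and amplicon-sequenced on an Illumina HiSeq 2500. Fitness from DiMSum is the error-weighted combination of wild-type-normalised replicate fold changes, kanamycin over none.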

Sequence | self-splicing fitness (ln) (30 °C) | self-splicing fitness (ln) (37 °C)
UUACAGCAAUAUUACGCAUG | -1.18 ± 0.069 | -0.0513 ± 0.087
UUACAGCAAUAUUACGCCCG | -0.115 ± 0.18 | 0.245 ± 0.25
UUACAGCAAUAUUACGCCCU | -2.55 ± 0.24 | -0.401 ± 0.26
UUACAGCAAUAUUACGCCGA | -1.29 ± 0.2 | -0.354 ± 0.22
UUACAGCAAUAUUACGCCGU |  | -2.05 ± 0.31
UUACAGCAAUAUUACGCGAC | -2.37 ± 0.17 | -1.41 ± 0.18
UUACAGCAAUAUUACGCGCU | -2.93 ± 0.37 | -2.04 ± 0.31
UUACAGCAAUAUUACGCGUA | -3.07 ± 0.2 | -1.94 ± 0.16
UUACAGCAAUAUUACGCGUC | -3.64 ± 0.2 | -1.32 ± 0.19
UUACAGCAAUAUUACGCGUU | -3.05 ± 0.14 | -1.95 ± 0.15
UUACAGCAAUAUUACGCUGG | -4.24 ± 0.32 | -2.08 ± 0.23
UUACAGCAAUAUUACGGCCC | -0.167 ± 0.33 | 
UUACAGCAAUAUUACGGCGA | -0.0852 ± 0.081 | 0.489 ± 0.11
UUACAGCAAUAUUACGGGCG | -0.655 ± 0.051 | 0.0547 ± 0.066
UUACAGCAAUAUUACGGUAC | -3.98 ± 0.22 | -2.26 ± 0.14
UUACAGCAAUAUUACGGUAG | -1.92 ± 0.12 | -0.729 ± 0.13
UUACAGCAAUAUUACGUAAA | -1.59 ± 0.13 | -0.34 ± 0.12
UUACAGCAAUAUUACGUACG | -0.291 ± 0.075 | 0.0876 ± 0.1
UUACAGCAAUAUUACGUAUU | -2.89 ± 0.14 | -1.55 ± 0.12
UUACAGCAAUAUUACGUUAU | -1.91 ± 0.087 | -1.98 ± 0.14
UUAGAGCAAUAUUACGAACU |  | -1.92 ± 0.43
UUAGAGCAAUAUUACGACCU | -3.64 ± 0.41 | -1.49 ± 0.43
UUAGAGCAAUAUUACGAGAA | -1.75 ± 0.17 | -0.981 ± 0.21
UUAGAGCAAUAUUACGAGCC | -0.789 ± 0.47 | 
UUAGAGCAAUAUUACGAGUG | -3.12 ± 0.16 | -1.53 ± 0.13
UUAGAGCAAUAUUACGAUGU | -2.59 ± 0.41 | -2.43 ± 0.41

Sequence | self-splicing fitness (ln) (30 °C) | self-splicing fitness (ln) (37 °C)
UUAGAGCAAUAUUACGCCUU | -2.34 ± 0.13 | -1.08 ± 0.16
UUAGAGCAAUAUUACGCGAA | -0.809 ± 0.14 | -0.155 ± 0.18
UUAGAGCAAUAUUACGCGUC | -2.56 ± 0.29 | 
UUAGAGCAAUAUUACGGAAC | -4.11 ± 0.39 | -2.33 ± 0.37
UUAGAGCAAUAUUACGGAUU | -3.74 ± 0.28 | -2.48 ± 0.27
UUAGAGCAAUAUUACGGCGG | -0.922 ± 0.14 | 0.0643 ± 0.2
UUAGAGCAAUAUUACGGGAC | -3.75 ± 0.36 | -2.8 ± 0.22
UUAGAGCAAUAUUACGUGCU |  | -1.79 ± 0.4
UUAGAGCAAUAUUACGUGGU | -3.98 ± 0.43 | -2.61 ± 0.39
UUAGAGCAAUAUUACGUUGU | -4.16 ± 0.31 | -2.4 ± 0.19
UUAUAGCAAUAUUACGAAGA |  | -1.99 ± 0.32
UUAUAGCAAUAUUACGACCA | -0.882 ± 0.2 | -0.384 ± 0.21
UUAUAGCAAUAUUACGAGCU |  | -2.16 ± 0.26
UUAUAGCAAUAUUACGAUGG | -1.24 ± 0.1 | -0.128 ± 0.14
UUAUAGCAAUAUUACGCAGC | -3.44 ± 0.31 | -2.49 ± 0.45
UUAUAGCAAUAUUACGCAGG | -1.06 ± 0.13 | -0.791 ± 0.16
UUAUAGCAAUAUUACGCCGG | -0.862 ± 0.19 | -0.599 ± 0.32
UUAUAGCAAUAUUACGCCUG | -0.833 ± 0.4 | -0.933 ± 0.37
UUAUAGCAAUAUUACGCGCG | 0.0634 ± 0.16 | -0.475 ± 0.18
UUAUAGCAAUAUUACGCGUC |  | -1.11 ± 0.41
UUAUAGCAAUAUUACGCUGU | -3.59 ± 0.37 | -1.06 ± 0.37
UUAUAGCAAUAUUACGCUUA | -1.92 ± 0.33 | -1.09 ± 0.26
UUAUAGCAAUAUUACGCUUU | -2.99 ± 0.28 | -2.6 ± 0.26
UUAUAGCAAUAUUACGGACA | -1.66 ± 0.14 | -0.61 ± 0.12
UUAUAGCAAUAUUACGGAUC | -3.02 ± 0.45 | 
